# Assay: soluble on expression in E. coli; label from the status in PepcDB or PDB records
row,Sequence,soluble on expression in E. coli
1,ELKPTAPPIFTGRPFVVAWDVPTQDCGPRLKVPLDLNAFDVQASPNEGFVNQNITIFYRDRLGLYPRFDSAGRSVHGGVPQNVSLWAHRKMLQKRVEHYIRTQESAGLAVIDWEDWRPVWVRNWQDKDVYRRLSRQLVASRHPDWPPDRIVKQAQYEFEFAAQQFMLETLRYVKAVRPRHLWGFYLFPDCYNHDYVQNWESYTGRCPDVEVARNDQLAWLWAESTALFPSVYLDETLASSRHGRNFVSFRVQEALRVARTHHANHALPVYVFTRPTYSRRLTGLSEMDLISTIGESAALGAAGVILWGDAGYTTSTETCQYLKDYLTRLLVPYVVNVSWATQYCSRAQCHGHGRCVRRNPSASTFLHLSTNSFRLVPGHAPGEPQLRPVGELSWADIDHLQTHFRCQCYLGWSGEQCQWDHRQAAGG,soluble
2,MNVTSGMDQILAQLKATSDLAAGGSKPSATVSTVSQADFGQLLKSAVDQVNTVQQTASQLSREFVGGNQDVELHDVMISLQKANVSFQSMIQVRNRLVTAYQEIMNMQV,not soluble
3,MPIATPEVYAEMLGQAKQNSYAFPAINCTSSETVNAAIKGFADAGSDGIIQFSTGGAEFGSGLGVKDMVTGAVALAEFTHVIAAKYPVNVALHTDHCPKDKLDSYVRPLLAISAQRVSKGGNPLFQSHMWDGSAVPIDENLAIAQELLKAAAAAKIILEIEIGVVGGEEDGVANEINEKLYTSPEDFEKTIEALGAGEHGKYLLAATFGNVHGVYKPGNVKLRPDILAQGQQVAAAKLGLPADAKPFDFVFHGGSGSLKSEIEEALRYGVVKMNVDTDTQYAFTRPIAGHMFTNYDGVLKVDGEVGVKKVYDPRSYLKKAEASMSQRVVQACNDLHCAGKSLTHHHHHH,soluble
4,MNRWQRAWRHLCSTGWQARRQFPAAQLKRLERQIAESERAHRGQLRFVVESALDWRAAWRGMSARERALQWFGELRVWDTEDNTGVLVYLLLAERRIEIVADRGIHRLAPAGEWAGICADMQRAFAAGAHVEGLESGLRRIHALLLAHAPRNGEPFVNELPDQVVVRLEHHHHHH,not soluble
5,MDTLAFINRALVEEGYSLKDIKLVLITDFEPSSVEAIRRLLAVNQGVSFIGRKYVKEVLEKFGLRNVRFRAVEEIPSLEFKLPESGTVKVLPFRNSPQEASAGYLLEEERILFSGKFLGSFGEKGDTIQIFHRVFFPCRNILDYNVGLLESIGEEFEVFPFYGEKQKLSAKTLKEYFNYTVKGSVLEREVILGLVNGVLLNLSDEERENLLSSIGYLAEVDDKVIVDFYTEPNLFYEEFVNTLPDAVKSKEEFYRIVEKLLEHNFYVPLRAV,not soluble
6,SDDREMDDGRWKASALRVPLQVSSAVIKQEVVTRLAPDPVPLTEGAIGIFLSGTEPESGQEDSGYKVIDNRKYVYSEGHWGPPTANDTIYLVGNDADVCAYYPYKDSYTDKTVIPLQSQDYVETEDIYYALNTMINGFTPAITFDMVHAYSLVELKISRENYFMPCEISKITLKNSNLIKKGTINIAVDGSIHSSETGNYDLTTVTDASPHTLSVGESYVCRVLMIPVPLKIERTDAEGGEFGLSVSLVIDGQQMLVEIPYSELGEFRQGEKYVIGLKIKGTEIVPTVKALEWEDEEVNGGNKYPVE,soluble
7,MGSDKIHHHHHHMYLKGDFHIHTNASDGKYTPEKVLELAKTAGINILAITDHDTTSSVKKAIAVGNELGIKVLPGIELSTLKNGESIHILGYFRDISYENKDFQNFLTEMQNYRVWRAKKIVENLDTYFNIKLDYASILKEASNVIARPHIARAILAKGYNYTYEYIFNNILNKESPAYIPNKKVSVEEGIKLLKAANAVVVLAHPVLIKKTPIEDFLKLDFDGIEAIYPMNSESDTERFLSLAKIYNKLVTAGSDFHTDDSSDTKHGRIGEIYLDENNIDILLSK,not soluble
8,MEENNKILIYTDSEGLTKIDVILEDETLWLTQAQMCELYQTSKSNVSEHIKHIFEEGELQEDSVVRKFRTTASDGKSYMTAYYNLDMIIALGYRIRSIIATRFRQWATQRLKEYMIKGFALDDERLKQLGGGGYWKELLERIRDIRATEKVLYRQVLEIYATSIDYDPRASVSQEFFKKVQNKIHYAIHGHTAAELIVERADAEKDFMGLLTFKGNQPTLSEARTAKNYLDEKELRAMGQLVSGYLDFAERQAEREQPMTMNDWANYLDRILTMSGEQLLLDSGKVSHTEAMEHATNEYRKYKQRTISDVEQDYLDSIKRIGNIGKKGDKNEN,not soluble
9,MDAHQIISFIQNSKKATPVKVYLKGDLEKIDFPSDVKTFITGNAGTIFGEWAVVEPLLEANKANIEDYVIENDRRNSAIPLLDMKNI,not soluble
10,MTTQTIKFHMKPETFKQNAAISLQDKPLRKSLRTAMDMLMTKRKAVLTDEEELQSLRDLCEHVRQRSLSKLPALLEQLEENLTKLGVKVHWAETPTEACQIIHDIITAKNGKLMVKGKSMVSEEIELNHYLEAKGIKAVESDLGEFIVQMAGEKPTHIVMPAIHKTKEQVSELFHQNLGTPLTDDVDQLTGFARKALRDIYSTADVGLSGVNFAVAETGTLCLVENEGNGRLSTTVPPVHIAITGIEKVVAKLSDIPPLYSLLPRSAIGQNITTYFNMITGPRRSEELDGPQEMHLVLLDNGRSQAYAEDQMRRTLQCIRCGACMNHCPVYTRIGGAAYGTTYPGPIGEIISPHLLGLDATRDLPTACTMCGACVEVCPVRIPITEQMQRLRVEAQRSPTETVPHPIRGQGASHTFGEQMAWRTFNGIFSGSKTYRAFGWAATKFRNLTPRKQLGWTQNRVPMKPAKKTLHELMAEKMRQKEQA,not soluble
11,MAIIEEIFEDEEDQITKVDSLKKEGNNFFANGEFEKANEKYQEAIASCPPTSTEVQSILLSNSAAALIKLRKWESAVEAASKSIEIGATNEKALERRAFAYSNMSEKYENSIEDYKQLQESLPKRRVELDRKIAEINEKINNRNEAMKADVMEKLKGFGNFCLSPFGLSTDSFEMVPNGNGGFSVQMKGATNKQEGASQEKKEEENA,soluble
12,AVVASLKPVGFIASAIADGVTETEVLLPDGASEHDYSLRPSDVKRLQNADLVVWVGPEMEAFMQKPVSKLPGAKQVTIAQLEDVKPLLMKSIHGDDDDHDHAEKSDEDHHHGDFNMHLWLSPEIARATAVAIHGKLVELMPQSRAKLDANLKDFEAQLASTETQVGNELAPLKGKGYFVFHDAYGYFEKQFGLTPLGHFTVNPEIQPGAQRLHEIRTQLVEQKATCVFAEPQFRPAVVESVARGTSVRMGTLDPLGTNIKLGKTSYSEFLSQLANQYASCLKGD,soluble
13,MLETEHANTEVHELCRQMIARIEKYGTLEGFSDSDILEVLKTIKEILEPLPCLIEIIAPVVVFGDIHGQLGDLLQFTNEVGRPPDFQYLFLGDYVDRGPNSLEVTVWLFCMKILFSKKVHLLRGNHEVRRVNTMYGFKEEMMRKRNSHLWKVFNDVFAELSICASINRKILCMHGGISPKIESWDSLTGMTKPRVHGDCEHGLIVDLIWSDPNRKDDTIQFNKMRGISTLFGKSVVDNLCTTLAIDLIIRAHEMKEVYVFHLYLSSMKGHTFEFDNRLLTVFSAPYYSGHNSNLGSVATISKSLKLRIVTLKPNKGYDRSKLDKRTLHDFEKNFQPLDENPRKNISCQFNVPPNGQKMSPFLGEYSMFAHETQFCKKDNETPVKKPYSSNQDEDHSVLDMIRKTQKGYGVEVSLKDKVMSLESIRKKLGMTTSTTPPPPRTPSPDAPLAQSPPIPRSPPSSTENA,not soluble
14,EFSLSTLLEMTVGLASGANNEERFHRLLDAVRKAVICDCVVLMSLHNDTLTPLAMQGLTRDTLGRRFVVSEHPRLAQICSADLPVRFAADCPLPDPFDGLLLDSEDDLPMHSCMGLPLHFGEQLLGILTLDSLKPDAFDHLSPRSLEILAAIAAATLKMTLTFSELENQAKQTQLRLEELNQEAWSRDSVE,not soluble
15,KKYVVFDMDGTLTTTDFEDVKQYAGEFFNSNYVAKMYPDVDNVVKYYASKGYGILYLTARPYWLSEESQTWLWKNGFPMGLLHTYTGGDVLLGEEAESFKAGYLNQLKSQGIEFDYGFGNEKTDVEAYSNIGIAKSNIFTIGKNRGIDGSVSIVSYTDYLKQLSGN,not soluble
16,SLSTLKILLCTDNHLGYKENNSIQKKDSFNSFEEILFIAKKLNVDMILNSGDLFHKNKVSEYTLFKSMYIIRKAGKKLIPFYTIHGNHDYPYSYEYISPLDILNISNLINYIGKNNLNNIVVKPILLNKYKSKISIYAVGWMKDERLYRSFENNEVKFILPSDYKNRINILVLHQNRYIRNAYGNNTKNFIKESFIPKFIDLVIWGHEHFSKPYLEESILNSFYNIQLGSSVRTSICPNEYGDKFIGLLEIKNQRFRFLKINLETVRPFEMKDIKLADYELNFKSESVLKEFLHEQTHAILEKIKNNFSHE,not soluble
17,DVDEVLRLCAEGLHDVLGYERVNILMADTARTSLSFVAAVGTADFNPAGVVLPLDQRGGVITKCFTDRQVYMIDDVSAYPTDFRLQSPYDAIRALRSKSFVICPIVVKGEAIGVFAVDNRSSR,not soluble
18,MSLKILVYGINYSPELTGIGKYTGEMVAWMAQEGHEVRVITAPPYYPQWKVGERYSAWRYRWEEGEATVWRCPLYVPKQPSTLKRLLHLGSFALSSFFPLMAQRRWKPDRIIGVVPTLFCTPGMRLLATLSGARTVLHIQDYEVDAMLGLGMAGKGKRGSVARLATAFERSALRNVDNVSTISRSMMNKAREKGVAAEKILFFPNWSEVARFQDVNDADVTALRQQLGLPEGKKIVLYSGNIGEKQGLEKVIDAAERLRDRPLIFAIVGQGGGKARMENMARERGLANIKFLPLQPYDALPALLKMGDCHLVVQKRGAADAVLPSKLTNILAVGGNAVITAEPHTELGQLCARYPGIAVCVEPESTDALVDGISQALAMPKNNMTAREYAERTLNKENVLRQFIADIRGEGHHHHHH,soluble
19,MGSDKIHHHHHHMTSRTPLVSVLPDFPWDSLASAKAKAASHPDGIVNLSVGTPVDPVAPSIQIALAEAAGFSGYPQTIGTPELRAAIRGALERRYNMTKLVDASLLPVVGTKEAIALLPFALGISGTVVIPEIAYPTYEVAVVAAGCTVLRSDSLFKLGPQIPSMMFINSPSNPTGKVLGIPHLRKVVKWAQENNVILAADECYLGLGWDDENPPISILDPRVCDGDHTNLIAIHSLSKTSNLASYRAGYLVGDPALIGELTEVRKNLGLMVPFPIQQAMIAALNDDDQEAGQKLTYAIRRAKLMRALLESGFQVDNSEAGLYLWATREEPCRDTVDWFAERGILVAPGDFYGPRGAQHVRVAMTETDERVDAFVSRLS,not soluble
20,MYELNICHLYPDLLNLYGDRGNIMALKMRCVWRGINVNVSNISIGDKFDAEAYDIIFLGGGQDYEQEIIQDDLLNQKGEEIRNAVKNDKVFLAICGGYQLLGSYYKTWDGKEIHFLNALDLWTIGGKERMIGNFVFECDFLKNDHYDGKIVGFENHSGRTYLGPGVKPLGKIIKGYGNNGEDGFEGAIYKNVYCSYSHGSLLPKNPALADHLISVALKQKYKDFVSLSGIDDEFENLAHDTTIKRIMG,soluble
21,MSKYWSNIVKKISPYVPGEQPKDKKYIKLNTNENPYPPSEKVLKAISAAVNESLRLYPDPACESLRNTLAKYYGIKASEVFVGNGSDELLAFSFMAFFNPGDTIIFPDITYSFYEVYSSMFSVNYRLIPLDDEFNVPVEEFFTENDGIILANPNAPTGKALPLQSIRKILEKNDDKVVIIDEAYVDFGARSSVPLIKEFENLLVIQTLSKSRALAGLRVGFALGSEQLIEGLDRVKNSINSYTLDRLALIGAEEAIKDHEYFCEIRDKIINTREWVSKKLSSMGFKVIESKANFIFISHPKINGRLLFEKYKENNILVRHFNSPRIDNFLRVSIGSDEEMNIFCEKTKEIIESLN,soluble
22,SNAMLRYGDTEICIDPSESVLHLLGKKYTMLIISVLGNGSTRQNFNDIRSSIPGISSTILSRRIKDLIDSGLVERRSGQITTYALTEKGMNVRNSLMPLLQYISVLDRNGD,soluble

# Source: the DeepSol protein solubility set
